Data as given in patent EP0888374B1.

Molecular target: Complement System Protein C1q (UniProt P02745)
Assay: cell-based or functional assay

Chain of UniProt P02745 (P02745 23-245, chain 1 of 3): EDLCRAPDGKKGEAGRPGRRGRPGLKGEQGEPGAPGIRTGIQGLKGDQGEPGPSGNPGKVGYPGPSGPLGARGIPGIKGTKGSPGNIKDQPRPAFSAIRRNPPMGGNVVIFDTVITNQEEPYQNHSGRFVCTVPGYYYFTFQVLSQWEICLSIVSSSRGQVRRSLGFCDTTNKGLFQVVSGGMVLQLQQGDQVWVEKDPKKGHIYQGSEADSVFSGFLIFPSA
Chain of UniProt P02745 (P02746 28-253, chain 2 of 3, further chain): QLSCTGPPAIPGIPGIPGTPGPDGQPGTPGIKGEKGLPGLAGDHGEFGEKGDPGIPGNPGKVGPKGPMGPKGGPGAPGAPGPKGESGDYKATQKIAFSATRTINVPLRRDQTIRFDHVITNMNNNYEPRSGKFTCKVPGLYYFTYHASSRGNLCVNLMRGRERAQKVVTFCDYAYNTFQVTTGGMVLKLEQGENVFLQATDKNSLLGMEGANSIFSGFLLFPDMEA
Chain of UniProt P02745 (P02747 29-245, chain 3 of 3, further chain): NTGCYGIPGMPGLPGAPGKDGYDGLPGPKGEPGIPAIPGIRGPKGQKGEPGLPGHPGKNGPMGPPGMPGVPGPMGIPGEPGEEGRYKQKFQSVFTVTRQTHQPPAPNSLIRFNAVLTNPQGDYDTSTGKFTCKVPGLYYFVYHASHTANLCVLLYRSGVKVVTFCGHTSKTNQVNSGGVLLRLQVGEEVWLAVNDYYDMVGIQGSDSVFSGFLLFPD

With “BSA-anti-BSA Immune Complexes (from UniProt P02769 25-607)” the [4d] µg (Class.) was 8 µg.
